Series [1] in a line: Competition of N^9-substituted and N^9-unsubstituted O^6-benzylguanine substrates. Format: biochemical. The method, then: Such N^9-substituted O^6-alkylguanine substrates are the natural substrates of the wild type AGT. The ability of wild type AGT or mutant AGT to react with N^9-modified O^6-alkylguanine substrates is measured as the rate of its reaction with such substrates, e.g. with the low molecular weight N^9-cyclopentyl-O^6-benzylguanine in presence of biotinylated N^9-unsubstituted O^6-alkylguanine substrates in competition experiments. Subsequently, samples are subjected to Western blotting and detection with streptavidin derivates to obtain kinetic constants for these substrates. Alternatively, the reactivity towards such substrates is measured as the inhibition of the reaction of AGT with BG-Cy3. The reaction of AGT with BG-Cy3 is followed by an increase of Cy3 fluorescence intensity upon binding to AGT, after preincubation or in direct competition with the N^9-modified O^6-alkylguanine substrate.
Selected AGT mutants are subcloned into pGEX2T, expressed, purified and characterized as described in Example 1. Discrimination between N^9 substituted and N^9 unsubstituted O^6-benzylguanine substrates is evaluated by competition experiments for purified mutated GST-AGT in vitro with N^9-substituted and N′-unsubstituted O^6-benzylguanine. Aliquots of 0.2 μM GST-AGT are incubated with varying concentrations of N^9 substituted substrate (0, 0.5, up to 100 µM) and 0.5 µM biotinylated O^6-benzylguanine (BG-Bt, substance 3a of Juillerat et al., Chem Biol 10:313-317, 2003) in 50 mM HEPES pH 7.3 and 1 mM DTT at room temperature. After 45 min reactions are quenched by the addition of SDS-Laemmli buffer and heat denaturation. Samples are subjected to SDS-PAGE and Western blotting analysis (neutravidin-peroxidase conjugate (PIERCE), Renaissance reagent plus (NEN)). The intensity of the corresponding bands is quantified by a Kodak Image Station 440.

Series [2] in a line: Periplasmic expression / stability under oxidizing conditions. More on the design: species or system E. coli. The procedure:
The activities towards AGT substrates are measured after purification without addition of reducing agents such as dithiothreitol or beta-mercaptoethanol. Alternatively, the activities of mutant AGT and wild type human are compared after their export into cellular compartments with oxidising redox potential (e.g. the periplasm of E. coli due to their fusion to appropriate signal sequences. Activity towards AGT substrates under reducing and oxidising conditions is compared by performing the reactions in the presence or absence of reducing agents such as dithiothreitol or beta-mercaptoethanol.
The mutant AGT gene of Example 1 is amplified and cloned as described in Example 1 with the oligonucleotides SEQ ID NO:3, SEQ ID NO:10 and SEQ ID NO:4, SEQ ID NO:9 causing the further mutation Cys62Ala in the gene upon their incorporation by PCR. Protein expression, purification and determination of yield is carried out as described in Example 1. The mutant gene is PCR amplified with the primers SEQ ID NO:11, SEQ ID NO:12 that contain SfiI restriction sites to subclone the gene in fusion to the g3 protein of filamentous phage in the vector pAK100 (Krebber et al., J Immunol Methods 201:35-55, 1997). […] The supernatant is directly subjected to quantification of protein yield via SDS-PAGE and activity assays as described in Example 1.
Stability under oxidizing conditions: The mutant gene is PCR amplified with the primers SEQ ID NO:11 and SEQ ID NO:28 to subclone the gene into pAK100, as described in Example 2. […] To compare the reactivity of […] (Juillerat et al., Chem Biol 10:313-317, 2003) and the mutant, samples are incubated with 1 µM BG-Bt for 50 min, quenched with SDS-Laemmli buffer and analyzed by western blotting using neutravidin peroxidase conjugate (Pierce) or a monoclonal mouse anti-FLAG IgG antibody (M2, Sigma) and a secondary anti-mouse-IgG::HRP conjugate, and Renaissance reagent plus (NEN). […] The anti-FLAG IgG antibody is used to estimate the total amount of soluble AGT protein, whereas neutravidin quantifies the reactive portion of it. […]

For series [3], the system named is oligonucleotide SEQ ID NO:2 (modified in position 14). Briefly: Reactivity against DNA-based substrates (BG-Cy3 assay with BG-modified oligonucleotide). Format: biochemical. The method, then: The ability of wild type AGT or mutant AGT to react with alkylated DNA substrates is measured as the reaction of its inactivation by a synthetic oligonucleotide containing O^6-benzylguanine (SEQ ID NO:2, modified in position 14). Subsequently, the reactions are quenched by incubation with biotinylated O^6-alkylguanine. Samples are subjected to Western blotting and detection with streptavidin derivates to obtain kinetic constants for these substrates. Alternatively, the ability of wild type or mutant AGT to react with alkylated DNA substrates is measured via its labeling efficiency in competition with a fluorescent substrate of AGT. The reaction kinetics of AGT with BG-Cy3 (O^6-benzylguanine coupled to Cy3) is followed by fluorescence intensity measurements at various concentrations of a competing synthetic oligonucleotide containing O^6-benzylguanine (SEQ ID NO:2, modified in position 14).
Reactivity against DNA-based substrates measured with a BG-Cy3 assay: BG-Cy3 is prepared by reacting the previously described O^6-(4-aminomethyl-benzyl)guanine (Keppler et al., NatureBiotechnol. 21:86-89, 2003) with the commercially available N-hydroxysuccinimide ester of Cy3, (Cy3-NHS, Amersham). The coupling reaction is performed at ambient temperature in N,N-dimethylformamide in the presence of 1 eq. of triethylamine. The BG-Cy3 conjugate is purified by reversed-phase HPLC on a C18-column by using linear gradients from 0.1% trifluoroacetic acid to acetonitrile. After solvent evaporation BG-Cy3 is dissolved in dimethyl sulfoxide and stored at −20° C. For measuring the reactivity with DNA-based substrates, a reaction mixture containing different concentrations (0 to 5 µM) of oligonucleotide SEQ ID NO:2 (modified in position 14), GST-AGT fusion protein at 0.2 µM and BG-Cy3 at […] in reaction buffer (50 mM HEPES, pH 7.2, 1 mM DTT, 200 mg/ml BSA) is incubated in microtiterplates. Fluorescence of the Cy3 derivative (excitation 519 nm, emission at 572 nm) is measured on a Spectramax Gemini plate reader (Molecular Devices).

B1: AGTM: AGT mutant Cys62Ala, Gln115Ser, Gln116His, Lys125Ala, Ala127Thr, Arg128Ala, Gly131Lys, Gly132Thr, Met134Leu, Arg135Ser, Cys150Asn, Ser151Ile, Ser152Asn, Asn157Gly, Ser159Glu, truncated after … (protein, UniProt P16455 1-207, looked up, variant C62A Q115S Q116H K125A A127T R128A G131K G132T M134L R135S C150N S151I S152N N157G S159E del183-207)
Methylated-DNA--protein-cystei …: MDKDCEMKRTTLDSPLGKLELSGCEQGLHEIKLLGKGTSAADAVEVPAPAAVLGGPEPLMQATAWLNAYFHQPEAIEEFPVPALHHPVFQQESFTRQVLWKLLKVVKFGEVISYSHLAALAGNPAATAAVKTALSGNPVPILIPCHRVVNINGAVGGYEGGLAVKEWLLAHEGHRLGKPGLG
modifications: His tag
As for B1, in series [1], the “reduced reactivity with N^9-substituted O^6-alkylguanine derivatives (factor)” value is at least 10. The “reduced reactivity towards O^6-alkyl-N^9-deoxyribosylguanine or N^9-cyclopentyl-O^6-benzylguanine” value in series [1] (comparator not stated) is “at least 100 fold”. Besides, in series [2], the sensitivity to oxidation result is given as “reduced sensitivity to oxidation”. In series [3], the “reduced reactivity with DNA substrates (factor)” value is at least 100. The “reaction with BG-Cy3 in presence of BG-modified oligonucleotide” value in series [3] (up to 5 µM BG-modified oligonucleotide) was “no reduction”.

These data come from patent publication US7888090B2, “Mutants of O6-alkylguanine-DNA alkyltransferase” (Ecole Polytechnique Federale de Lausanne, priority 2004, dated 2011).
